Experimental data published in the supplement of paper PMC9170038.

Legend:
[1] = system: MS2 coat protein; test: apparent KD of MS2 coat protein, switch OFF state (with FMN for OFF switches, without FMN for ON switches); designed switch direction (-1 OFF switch, 1 ON switch): -1; higher = weaker reporter binding; conditions: FMN input: 0 or 200 uM; Eterna round: R93 (includes R88 designs)
Method in brief: (§1)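 Apparent KD was obtained for each design as the median of normalised binding-curve fits over its clusters. RNA switches transcribed on-chip from Illumina sequencing clusters were titrated with SNAP-549-labelled MS2 coat protein (twofold steps, 0.7 or 1.5 nM to 3 µM) in 100 mM Tris-HCl pH 7.5, 80 mM KCl, 4 mM MgCl2, without or with constant ligand.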

[2] = system: MS2 coat protein; test: apparent KD of MS2 coat protein, switch ON state; designed switch direction (-1 OFF switch, 1 ON switch): -1; higher = weaker reporter binding; conditions: FMN input: 0 or 200 uM; Eterna round: R93 (includes R88 designs)
Method in brief: as §1

Sequence | apparent KD of MS2 coat protein [1] [nM] | apparent KD of MS2 coat protein [2] [nM]
AGUCUGAGAGGAUAUACAUGGGAAAAAAAAGUCAGAUCCCUACAUGAGGAUCACCCAUGUAGAAGGCUCUGACA [Ex2 Design 147: Sub-opt 11] | 11.4 | 22.2
AGUGAGUGAGGAUAUGCCUGAAGAAUAAAAGAAAUAACGAGGCAGAAGGCACAUGAGGAUCACCCAUGUACACA [May 65] | 28.2 | 32.1
AGUGAGUGAGGAUAUUACUGAAGAAUAAAAGAAAUAACGAGUAAGAAGGCACAUGAGGAUCACCCAUGUACACA [May 62] | 24 | 25.5
AGUUGGCGAGGAUAUACAUGAGGAUCACCCAUGUAAAAUAAAUAAAAAAGGGAAGAAAGUAGAAGGCGCUGACA [73%, Moding Norbert Elias, 11] | 175 | 40.5
AGUUGGCGAGGAUAUACAUGAGGAUCACCCAUGUGAAAGAAAAAAGUGAAAAAGAAAAGUAGAAGGCGCUGACA [73%, Moding Norbert Elias, 4] | 131 | 31.3
AUAAAGUCAGGAUAUGUAAAAAUAACGAAAGUUAUAAAUAAACAGAAGGGACAUGAGGAUCACCCAUGUACAAU [Opal 15] | 21.2 | 25.4
AUAAAGUGAGGAUAUGCUAAUAAAUAAAUAGACAAAUAAAUGCAGAAGGCACAUGAGGAUCACCCAUGUAAGAA [Ex 4 Tesla 3] | 28.9 | 28.4
AUAAUACAUGAGGAUCACCCAUGUCAGGAUAUGCUAAAAUUAAAAUUAAAUCAAAAAUGUAGAAGGGACUAAAU [Exclusion Z3] | 42.9 | 49.8
AUAAUGUCAGGAUAUCAGUAGUAAAAAAAAAAAAUUACUACUGAGAAGGGACAUGAGGAUCACCCAUGUCAAAA [EX4 307: Super Stable 7] | 24.9 | 27.6
AUCUAGUCAGGAUAUGACUACAUAAAAAAUAAAAAAUGUAGUCAGAAGGGACAUGAGGAUCACCCAUGUACUAA [Mat - Exclusion 4 - Eli mod - D95] | 29.3 | 26.3
CAAAAGCUAGGAUAUGCUAAUUGUUCCUUAAGUCAAAAUAAACAUGAGGAUCACCCAUGUAGAAGGAGCCCACA [Tegean] | 16.9 | 31.5
CAAUCUGCAGGAUAUACAUGAGGAUCACCCAUGUAAGGACAAUAAAUAAGAAGAAGAAGUAGAAGGGCAGACAA [e3] | 29.2 | 27.5
CAGUACUGAGGAUAUACAUGAGGAUCACCCAUGUGGUUAAGCUAGGAAACUAGCACAUGUAGAAGGCAGUACUG [Ex3: 814] | 19.5 | 50.1
CAUUCACAUGAGGAUCACCCAUGUAAGGAUAUCGAAAUAAAACUAAUCAAUAAACAAACGAGAAGGUACAAAAA [Exclusion 1 design 9] | 21.2 | 26
CCCAUGUCAGGAUAUCAGUAGUAAAAAAAAAAAAUUACUACUGAGAAGGGACAUGAGGAUCACCCAUGUUCCAA [EX4 318: Super Stable 18] | 53 | 58.3
CCUAUGUCAGGAUAUCAGUAGUAAAAAAAAAAAAUUACUACUGAGAAGGGACAUGAGGAUCACCCAUGUCCAAA [EX4 312: Super Stable 12] | 18.4 | 25.6
CCUGUGUGAGGAUAUGGUAAAAAAAAAAAAAAAAAGCUCCUCCAGAAGGCACAUGAGGAUCACCCAUGUCGUGG [Jolly's Folly 15 - Jieux - Exclusion 4] | 38.2 | 18.9
CUCAAGUAAGGAUAUUGAAGAAAAGAAGAGAAAGAAAAGAACAAGAAGGUACAUGAGGAUCACCCAUGUAAGAA [EteRNA is fun!] | 16.6 | 33.4
CUCAAGUCAGGAUAUUUAAGAAAAGAAGAGAAAGAAAAGAAAAAGAAGGGACAUGAGGAUCACCCAUGUAAGAA [EteRNA is fun!] | 41.3 | 60.4
CUCAAGUGAGGAUAUAUAAGAAAAGAAGAGAAAGAAAAGAAAUAGAAGGCACAUGAGGAUCACCCAUGUAAGAA [EteRNA is fun!] | 24.1 | 29.5

Sequence | apparent KD of MS2 coat protein [1] [nM] | apparent KD of MS2 coat protein [2] [nM]
CUCAAGUUAGGAUAUUCAAGAAAAGAAGAGAAAGAAAAGAAGAAGAAGGAACAUGAGGAUCACCCAUGUAAGAA [EteRNA is fun!] | 26 | 53.8
CUCAUGUGAGGAUAUGUACAGAAAAAAAUGGGUGAAACUGUACAGAAGGCACAUGAGGAUCACCCAUGUGCCAA [EX4 376: S S Pseudoknot 1] | 16.3 | 52.2
CUCUAGUGAGGAUAUGGAAGAAAAGAAGAGAAAGAAAAGAACCAGAAGGCACAUGAGGAUCACCCAUGUAAGAA [EteRNA is fun!] | 46.3 | 38.9
CUCUUGUGAGGAUAUCUAAGAAAAGAAAAGAAAGAAAAGAAAGAGAAGGCACAUGAGGAUCACCCAUGUAAGAA [EteRNA is fun!] | 84.6 | 35.7
CUUAGACAUGAGGAUCACCCAUGUGAGGAUAUGAUGCGAAUAAAGAAAGAAGAAAGCAUCAGAAGGCACAUAUG | 545 | 41.3
CUUAUGUCAGGAUAUCAGUAGUAAAAAAAUAAAAUUACUACUGAGAAGGGACAUGAGGAUCACCCAUGUCCGGG [EX4 369: Super Stable 69] | 34 | 78.4
GAAAAACAUGAGGAUCACCCAUGUCAGGAUAUCGAAAAAAAUAAAAAAGAAAAGAAAACGAGAAGGGACAAAAA [May 12] | 45.6 | 28.2
GAAAAGUCAGGAUAUGCAGACAAAGCAAAAAAGCAAUGUCUGCAGAAGGGACAUGAGGAUCACCCAUGUAAAAA [Mat - Exclusion 4 - Mayanna - D115] | 45.2 | 51.4
GAAAAUGGAGGAUAUACAUGAGGAUCACCCAUGUGUAAAAAAAAUUACACAAAAGAAAGUAGAAGGCCAUAAAG [Mat - Exclusion 3 - Mayanna mod - D106] | 138 | 49.8
GAACACGGAGGAUAUACAUGAGGAUCACCCAUGUUGAUCCUCAUUAAAAUUGAUAAAUGUAGAAGGCCGUGAUA [Exclusion 3.11 (a Vinnie Mod, FMN+ favored more)] | 21.2 | 49.4
GAAGAACAUGAGGAUCACCCAUGUCAGGAUAUGAAUAACGGAAUAAUACGUUAUGGAAUCAGAAGGGACAAGAA [Ex 1 May 52] | 59.4 | 48.9
GAAGAACAUGAGGAUCACCCAUGUCAGGAUAUGCAGAAGGGAAUAAUAACUUCUGGAAGCAGAAGGGACAAGAA [Ex 1 May 47] | 30.5 | 29.6
GAAGUGUUAGGAUAUCGAUGAAUAAUAAAACAAAGGAACAUUGAGAAGGAACAUGAGGAUCACCCAUGUAAAAC [May 82] | 25.6 | 33.4
GAAUACCUAGGAUAUACAUGAGGAUCACCCAUGUCAGUAGACUGGGAAAAGUCUCUCAGUAGAAGGAGGACCAG [Anaran] | 233 | 192
GAAUGUCUAGGAUAUACAUGAGGAUCACCCAUGUGUAAAAAUAAAUACACAAAAGAAAGUAGAAGGAGACAAAG [Mat - Exclusion 3 - Mayanna mod - D122] | 46.5 | 28.5
GAGGCUGAAGGAUAUACAAGGGCCUCACCGCCAAAACGGAAACAUGAGGAUCACCCAUGUAGAAGGUCAAUAAA [Reisvexe] | 77 | 57.1
GAUAGUGAAGGAUAUACUGGAGGAGUGCGAUAGAAGAAAGAACAUGAGGAUCACCCAUGUAGAAGGUCAGAAGU [JR_Exc002_Sub1225] | 27.2 | 32.3
GCAAAGUGAGGAUAUACGCGAACAAUAAAAAUAAAGAAAGCGUAGAAGGCACAUGAGGAUCACCCAUGUCCAGC [Mat - Exaclusion 4 - Eli mod - D78] | 25.9 | 23.5
GCUGGCCAAGGAUAUACAUGAGGAUCACCCAUGUGAGAGAAAAAAGUGAGAAAGAAAAGUAGAAGGUGGGUAGG [salish99-ex3-111] | 56.9 | 59
GCUGUCCAAGGAUAUACAUGAGGAUCACCCAUGUGAGAGAAAAAAGUGAGAAAGAAAAGUAGAAGGUGGGUAGG [salish99-ex3-103] | 56.6 | 31.6
